Test results published in paper PMC9260137 (Molecules and Cells, 2022).

Experiments:
SEC-MALS = target: the molecule itself; assay: SEC-MALS
purified protein [1] = substrate: NC(=O)c1ccc[n+]([C@@H]2O[C@H](COP(=O)(O)OP(=O)(O)OC[C@H]3O[C@@H](n4cnc5c(N)ncnc54)[C@H](O)[C@@H]3O)[C@@H](O)[C@H]2O)c1; assay: purified protein; conditions: 37 °C, amino acid co-substrate not given, varied: cofactor
purified protein [2] = substrate: CC[C@H](C)[C@H](N)C(=O)O; assay: purified protein; conditions: oxidative deamination, co-substrate NAD+, 37 °C
purified protein [3] = substrate: CC(C)C[C@H](N)C(=O)O; assay: purified protein; conditions: oxidative deamination, co-substrate NAD+, 37 °C
purified protein [4] = substrate: CC(C)[C@H](N)C(=O)O; assay: purified protein; conditions: oxidative deamination, co-substrate NAD+, 37 °C

B1: Leucine dehydrogenase from Pseudomonas aeruginosa (enzyme)
chain: MFDMMDAARLEGLHLAQDPATGLKAIIAIHSTRLGPALGGCRYLPYPNDEAAIGDAIRLAQGMSYKAALAGLEQGGGKAVIIRPPHLDNRGALFEAFGRFIESLGGRYITAVDSGTSSADMDCIAQQTRHVTSTTQAGDPSPHTALGVFAGIRASAQARLGSDDLEGLRVAVQGLGHVGYALAEQLAAVGAELLVCDLDPGRVQLAVEQLGAHPLAPEALLSTPCDILAPCGLGGVLTSQSVSQLRCAAVAGAANNQLERPEVADELEARGILYAPDYVINSGGLIYVALKHRGADPHSITAHLARIPARLTEIYAHAQADHQSPARIADRLAERILYGPQ
- stoichiometry N (SEC-MALS): 2
- Km (purified protein [1]): 200 ± 100 µM
- Vmax (purified protein [1]): 23200 µM/min/mg
- Km (purified protein [2]): 400 ± 100 µM
- Vmax (purified protein [2]): 7870 µM/min/mg
- kcat (purified protein [2]): 1.8 ± 0.1 s⁻¹
- kcat/Km (purified protein [2]): 5800 ± 400 M⁻¹ s⁻¹
- Km (purified protein [3]): 1100 ± 100 µM
- Vmax (purified protein [3]): 21100 µM/min/mg
- kcat (purified protein [3]): 5.2 ± 0.5 s⁻¹
- kcat/Km (purified protein [3]): 4300 ± 700 M⁻¹ s⁻¹
- Km (purified protein [4]): 500 ± 100 µM
- Vmax (purified protein [4]): 35000 µM/min/mg
- kcat (purified protein [4]): 9.6 ± 0.8 s⁻¹
- kcat/Km (purified protein [4]): 14400 ± 900 M⁻¹ s⁻¹
